Laboratory results published in US7230094B2, “Neutral sphingomyelinase antisense ribozyme and uses thereof” (priority 2001, dated 2007).

Key:
Type in all cases: cell-based, human
N-SMase [1] = assay: Immunocytochemical analysis of cells, N-SMase antibody; conditions: clone CC compared to untransfected (WT) and sham-transfected (LacZ) lines
Description: (§1) Wild-type (WT) MG-63 cells and MG-63 cells transfected with LacZ constructs (L-3) and ribozyme expression constructs for the inhibition of N-SMase expression (CC) were analyzed by immunocytochemistry. The antibodies either recognized epitopes in fibronectin (control) or N-SMase. The analysis was performed in duplicates for the MG-63 cell line and the two mutant colonies.

N-SMase [2] = assay: TNF-α and Fas ligand induced N-SMase activity in WT and mutant cells; conditions: for Basal activity of N-SMase: unstimulated CC cells, 2.7±0.1 in MG63 control cells, ±S.D., N=3
Description: FIGS. 4A–4B depict the effects of incubation with TNF-α (FIG. 4A) and Fas ligand (FIG. 4B) over time on the activity of N-SMase in mutant and WT cells. Confluent cultures of WT (MG-63) and mutant (CC) cells were incubated with serum free medium with or without TNF-α ([…]) or Fas ligand (1 ng/ml). At the indicated intervals, cells were harvested, centrifuged, and lysed in buffer containing 0.1% Triton™ X-100, 25 mM Tris (pH 7.4), 5 mM EDTA, 1 mM phenylmethylsulfonyl fluoride (PMSF), and 2 μg each of chymostatin, leupeptin, antipain, and pepstatin A. 100 μl of a reaction mixture containing 50 mM Tris (pH 7.4), 5 mM MgCl2, 0.05% Triton™ X-100, 5 mM dithiothreitol (DTT) and 10 nmol [^14C] sphingomyelin (100,000 cpm) was added to 5–10 μl of cell lysate (100 μg protein). The basal activity of N-SMase was 2.7±0.1 nmol/mg protein/hr in MG63 cells and 0.67±0.1 nmol/mg protein/hr in CC cells. These levels were defined as 100% activity. Error bars indicate ±S.D. (N=3).
Tumor necrosis factor alpha (TNF-α) is known to induce programmed cell death through stimulation of sphingomyelinase activity and generation of ceramide. This example describes the ability of the ribozyme directed against N-SMase to inhibit this pathway. The effects of incubation with TNF-α and Fas ligand over time on the activity of N-SMase in mutant and WT cells are shown in FIGS. 4A and 4B, respectively. Confluent cultures of WT (MG-63) and mutant (CC) cells were incubated with serum free medium with or without TNF-α ([…]) or Fas ligand (1 ng/ml), and the activity of N-SMase was determined by measuring the cleavage of [^14C]sphingomyelin. At 0, 10, 20, 30, 40, 50, and 60 minutes, cells were harvested, centrifuged, and lysed in buffer containing 0.1% Triton™ X-100, 25 mM Tris (pH 7.4), 5 mM EDTA, 1 mM phenylmethylsulfonyl fluoride (PMSF), and 2 μg each of chymostatin, leupeptin, antipain, and pepstatin A. 100 μl of a reaction mixture containing 50 mM Tris (pH 7.4), 5 mM MgCl2, 0.05% Triton™ X-100, 5 mM dithiothreitol (DTT) and 10 nmol [^14C]sphingomyelin (100,000 cpm) was added to 5–10 μl of cell lysate (100 μg protein). The basal activity of N-SMase was 2.7±0.1 nmol/mg protein/hr in MG63 cells and 0.67±0.1 nmol/mg protein/hr in CC cells. These levels were defined as 100% activity.

[3] = test system: ceramide production by N-SMase; assay: Ceramide level, modified diacylglycerol kinase assay; conditions: for Production of ceramide in response to cytokine stimulation: ribozyme-transfected (N-SMase-deficient) cells compared to sham transfected cells, TNF-α 20 ng/ml or Fas-L 1 ng/ml, 24 hours
fibronectin = assay: Immunocytochemical analysis of cells, fibronectin antibody (specificity control); conditions: lines harboring pU1/N-SMase vs pZeoSVLacZ vs untransfected cells
Description: as §1

N-SMase [4] = assay: N-SMase activity gel analysis of partially purified preparations; conditions: CC mutant cells compared to control cells, FIG. 2
Description: FIG. 2 depicts N-SMase activity in mutant and WT cells, as determined using gel analysis. Partially purified preparations of the MG-63 (WT) cell line and the mutant cell line CC were subjected to 7.5% polyacrylamide gel electrophoresis at 4° C. employing sodium lauryl sarcosine as the detergent. The gel was calibrated with pre-stained protein molecular weight standards (phosphorylase B, bovine serum albumin (BSA), and ovalbumin). Gel slices were excised and subjected to an N-SMase assay employing […] as the substrate.
N-SMase activity in mutant and WT cells (subjected to detergent extraction as described above), was determined using gel analysis. Partially purified preparations of the MG-63 (WT) cell line and the mutant cell line CC were subjected to 7.5% polyacrylamide gel electrophoresis at 4° C. employing sodium lauryl sarcosine as the detergent. The gel was calibrated with pre-stained protein molecular weight standards (phosphorylase B, bovine serum albumin (BSA), and ovalbumin; Bio-Rad). Gel slices were excised, transferred to glass tubes, and subjected to an N-SMase assay at pH 7.4 employing […] as the substrate.

MG-63 cells = assay: Cell viability by trypan blue staining; conditions: ribozyme transfected cells, 24 hours, trypan blue, FIG. 8
Description: FIG. 8 depicts the effect of TNF-α on viability of wild type, ribozyme transfected and wild type/mock transfected cells. Cells ([…]) were seeded in 96 well sterile plastic trays. Upon confluence medium was replaced with serum free minimum essential medium and TNF-α (20 ng/ml). After incubation for 24 h at 37° C., viability of cells were determined by Trypan blue staining. The results represent ±S.D. of three experiments.
The population of viable cells was determined using trypan blue staining. Cells (10^4) were seeded in 96 well plates. Twenty-four hours later, the media was replaced with serum-free MEM, and TNF-α in various concentrations was added. After incubation for 24 hours at 37° C., the cells were trypsinized, and viable cells were counted after staining with trypan blue. Values were compared to the original cell count (10^4) and expressed as a percentage.

B1: N-SMase ribozyme: U1 snRNA-derived hammerhead antisense ribozyme targeting N-SMase mRNA, expressed from vector pNSMRz; stably transfected MG63 clones CC and C-B (nucleic acid, listed as Homo sapiens)
chain: AUACUUACCUGGCAGGGGAGAUACCAUGAUCACGAAGGUGGUUUUCCCAGGGCGAGGCUUAUCCAUUGGCCUCCGGAUGUGCUGACCCCUGCGAUUUCCCCAAAUGUGGGAAACUCGACUGCAGAAUAUGUCAUCAUAUUGCCUGAUGAGUCCGUGAGGACGAAACCUCUUCACAUGAAAAAGUGGGGCUGCGUUCGCGCUUCCCCG
- Immunohistochemical staining for N-SMase (N-SMase [1]): near absence
- N-SMase activity under cytokine stimulation (N-SMase [2]; ribozyme cells stimulated with TNF-α and Fas-L, sham-transfected cells 4.0): 0.75 nmol/mg protein/hr
- Change of N-SMase activity after addition of TNF-α (N-SMase [2]; ribozyme transfected cells, 0-60 min, FIG. 4A): no significant difference
- Basal activity of N-SMase (N-SMase [2]): 0.67±0.1 nmol/mg protein/hr
- Basal activity of N-SMase (N-SMase [2]; listed as antisense ribozyme): 0.67 nmol/mg protein/hr
- Production of ceramide in response to cytokine stimulation ([3]; listed as antisense ribozyme): substantially no change
- Production of ceramide in response to cytokine stimulation ([3]; listed as ribozyme): severely reduced
- Basal level of ceramide production ([3]; ribozyme-transfected CC cells, 2.63 in MG-63 control cells): 4.59 pmole/mg protein
- Immunohistochemical staining with monoclonal antibody to fibronectin (fibronectin): No differences were observed
- Level of N-SMase activity in gel slices (N-SMase [4]): greatly reduced
- Decline in viable cells over a wide range of TNF-α concentrations (MG-63 cells): no significant decline
